# Reference: article doi:10.1101/2020.11.24.395475
# Target: ARTD2WGR-RD-ART (Homo sapiens, UniProt Q9UGN5 90-583)
# Test: X-ray crystallography
# Sequence of ARTD2WGR-RD-ART (Q9UGN5 90-583): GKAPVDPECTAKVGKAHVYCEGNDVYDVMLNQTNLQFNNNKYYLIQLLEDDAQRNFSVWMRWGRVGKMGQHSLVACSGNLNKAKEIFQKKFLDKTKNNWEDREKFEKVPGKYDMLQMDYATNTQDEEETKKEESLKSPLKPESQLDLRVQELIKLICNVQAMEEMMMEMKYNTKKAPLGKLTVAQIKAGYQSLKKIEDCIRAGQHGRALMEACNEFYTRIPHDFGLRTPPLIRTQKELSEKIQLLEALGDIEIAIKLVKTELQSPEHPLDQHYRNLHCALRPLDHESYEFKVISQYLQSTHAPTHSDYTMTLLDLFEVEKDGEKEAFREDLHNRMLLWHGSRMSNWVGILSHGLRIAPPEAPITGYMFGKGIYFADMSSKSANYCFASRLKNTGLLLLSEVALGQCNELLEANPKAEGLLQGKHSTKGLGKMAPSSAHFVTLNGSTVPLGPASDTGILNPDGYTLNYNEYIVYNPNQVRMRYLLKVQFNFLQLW
binder,measurement,value
"DNA-1 (dsDNA, 5'-phosphate on forward strand) DNA 1: GACGACCCGGAGCACA DNA 2: TGTGCTCCGGGTCGTC",binding result,binds
